According to publication PMC7022617, “Structural and Functional Aspects of G-Quadruplex Aptamers Which Bind a Broad Range of Influenza A Viruses”:

B1: G7-TAAGAA (structured_DNA)
DNA: TTGGGGTAAGAAGGGAGGGCGGGGGTT
B2: G7-TTATTAA (structured_DNA)
DNA: TTGGGGTTATTAAGGGAGGGCGGGGGTT
B3: RHA0385 (structured_DNA)
DNA: TTGGGGTTATTTTGGGAGGGCGGGGGTT
B4: G7-TTA (structured_DNA)
DNA: TTGGGGTTAGGGAGGGCGGGGGTT

Biological target: hemagglutinin HA1 subunit H5 (recombinant, Abcam ab190125) (Influenza A virus A/Vietnam/1203/2004 …, UniProt Q6DQ33 17-346)
Test: SPR; 10 mM K+
Conditions: protein: commercial

Binder | Kd [µM] | Kd (parallel intramolecular G4) [µM]
B1 | 0.06 ± 0.01 | 
B2 |  | 0.03 ± 0.01
B3 | 0.013 ± 0.003 | 
B4 | 0.02 ± 0.006 | 
